The source of these data is patent publication US20190015483A1 (CSL BEHRING RECOMBINANT FACILITY, published 2019).

For experiment [1], the target named is recombinant Factor VIII (CSL627, rVIII-SingleChain) (Homo sapiens (Human)) (UniProt P00451). Put plainly: SPR, anti-His capture, FVIII injected, 37 C. (In general: In SPR one partner is held on a chip, and binding of the other changes the refractive index at the surface.)
For experiment [2], the target named is T1, recombinant Factor VIII (CSL627, rVIII-SingleChain) (Homo sapiens (Human), UniProt P00451 20-2351).
T1 construct: also called FVIII
T1 sequence: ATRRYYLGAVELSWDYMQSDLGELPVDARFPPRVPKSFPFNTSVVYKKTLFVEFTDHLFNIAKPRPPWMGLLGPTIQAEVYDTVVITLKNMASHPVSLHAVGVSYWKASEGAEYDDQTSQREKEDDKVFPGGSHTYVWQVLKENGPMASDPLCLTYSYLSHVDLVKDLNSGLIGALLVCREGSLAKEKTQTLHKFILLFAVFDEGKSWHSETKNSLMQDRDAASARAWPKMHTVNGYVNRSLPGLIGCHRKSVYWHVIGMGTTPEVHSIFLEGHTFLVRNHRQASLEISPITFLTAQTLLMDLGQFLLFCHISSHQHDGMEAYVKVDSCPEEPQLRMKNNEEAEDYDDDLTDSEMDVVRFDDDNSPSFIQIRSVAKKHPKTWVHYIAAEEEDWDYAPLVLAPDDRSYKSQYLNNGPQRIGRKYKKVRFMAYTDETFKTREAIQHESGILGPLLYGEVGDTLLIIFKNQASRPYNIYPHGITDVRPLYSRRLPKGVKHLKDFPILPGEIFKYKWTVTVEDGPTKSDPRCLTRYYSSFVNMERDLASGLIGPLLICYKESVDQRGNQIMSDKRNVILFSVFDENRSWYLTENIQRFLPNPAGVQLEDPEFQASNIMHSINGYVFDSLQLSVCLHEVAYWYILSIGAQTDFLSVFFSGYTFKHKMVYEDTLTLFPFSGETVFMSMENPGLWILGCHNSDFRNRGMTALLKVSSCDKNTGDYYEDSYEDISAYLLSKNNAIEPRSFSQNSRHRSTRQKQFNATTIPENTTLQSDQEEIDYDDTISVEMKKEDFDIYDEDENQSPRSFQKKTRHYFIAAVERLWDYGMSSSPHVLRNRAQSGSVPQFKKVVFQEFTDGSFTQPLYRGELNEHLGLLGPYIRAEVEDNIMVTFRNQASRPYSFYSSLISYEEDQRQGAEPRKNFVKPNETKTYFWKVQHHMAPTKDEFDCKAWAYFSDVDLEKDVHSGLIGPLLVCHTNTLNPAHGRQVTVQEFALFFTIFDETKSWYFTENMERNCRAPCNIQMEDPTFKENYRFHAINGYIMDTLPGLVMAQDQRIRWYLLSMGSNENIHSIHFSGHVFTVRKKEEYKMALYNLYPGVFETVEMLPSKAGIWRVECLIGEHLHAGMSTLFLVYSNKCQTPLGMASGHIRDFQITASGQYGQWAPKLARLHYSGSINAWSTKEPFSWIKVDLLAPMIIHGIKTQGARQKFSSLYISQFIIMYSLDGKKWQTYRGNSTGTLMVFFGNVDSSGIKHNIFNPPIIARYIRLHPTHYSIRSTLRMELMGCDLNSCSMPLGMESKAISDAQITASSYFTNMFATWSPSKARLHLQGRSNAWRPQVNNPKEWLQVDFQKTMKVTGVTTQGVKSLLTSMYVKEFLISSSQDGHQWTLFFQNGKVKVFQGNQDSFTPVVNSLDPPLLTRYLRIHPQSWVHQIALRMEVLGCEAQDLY
In words: SPR, anti-His capture. How it is done: Binding kinetics were investigated by surface plasmon resonance using a Biacore 4000 biosensor at 37° C. Each mutant was captured from cell culture medium to a density of 40-150 RU on a CM-5 sensor chip pre-immobilised with anti-His antibody (14,000 RU). In an initial screening study, FVIII was injected over the captured mutants for 5 minutes at 1 nM and dissociation monitored for 5 minutes.
All sensorgrams were double referenced by subtraction of signals from a reference spot (containing only immobilised anti His antibody) and from a blank injection. Binding kinetics were determined by fitting the double referenced sensorgrams to a 1:1 kinetic model.

Experiment [3] addresses T1, recombinant Factor VIII (CSL627, …). In words: SPR, anti-His capture. The procedure, abridged: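 His-tagged mutants were captured directly from culture medium onto an anti-His surface (14,000 RU) at 40-150 RU. FVIII at 1 nM was injected for 5 min, followed by 5 min dissociation. Double-referenced sensorgrams were fitted to a 1:1 kinetic model.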
This is another data set of the same source.

Experiment [4] deals with T2, recombinant Factor VIII (CSL627, rVIII-SingleChain) (Homo sapiens (Human), UniProt P00451 20-2351).
T2 construct: also called FVIII
T2 sequence: T1 sequence
In words: SPR, anti-His capture, FVIII injected, pH 5.5.

Residue numbers refer to the chain shown, from its start. Numbers in names are those of the source. Where “and” joins values, the source holds several entries; their conditions need not be identical. Equal entries are not always repeated.

As a reminder, the Kd is a measure of binding affinity in units of concentration. What is called koff is a measure of how fast the partners let go of each other. What is called kon is a measure of how fast the partners come together. “Hu-vWF[764-1270]-8His dupS764/S764P/S766I (from UniProt P04275 767-1270)”: in experiment [1], the dissociation constant Kd was 255 pM and 199 pM; the off-rate constant (koff) was 0.00159 s⁻¹ and 0.0025 s⁻¹; the kon was 6.23e+06 M⁻¹ s⁻¹ and 1.25e+07 M⁻¹ s⁻¹.

B1: Hu-vWF[764-1270]-8His S764A/S766Y (other)
chain: ALYCRPPMVKLVCPADNLRAEGLECTKTCQNYDLECMSMGCVSGCLCPPGMVRHENRCVALERCPCFHQGKEYAPGETVKIGCNTCVCRDRKWNCTDHVCDATCSTIGMAHYLTFDGLKYLFPGECQYVLVQDYCGSNPGTFRILVGNKGCSHPSVKCKKRVTILVEGGEIELFDGEVNVKRPMKDETHFEVVESGRYIILLLGKALSVVWDRHLSISVVLKQTYQEKVCGLCGNFDGIQNNDLTSSNLQVEEDPVDFGNSWKVSSQCADTRKVPLDSSPATCHNNIMKQTMVDSSCRILTSDVFQDCNKLVDPEPYLDVCIYDTCSCESIGDCACFCDTIAAYAHVCAQHGKVVTWRTATLCPQSCEERNLRENGYECEWRYNSCAPACQVTCQHPEPLACPVQCVEGCHAHCPPGKILDELLQTCVDPEDCPVCEVAGRRFASGKKVTLNPSDPEHCQICHCDVVNLTCEACQEPGGLVVPPTDAPVSPTTLYVEDISEPPLHDFHHHHHHHH
B1: in experiment [2], the Kd was found to be 2.42 pM, the koff was found to be 7.21e-05 s⁻¹ and the on-rate (kon) was found to be 2.98e+07 M⁻¹ s⁻¹.

B2: Hu-vWF[764-1270]-8His S764L/S766Y (other)
chain: B1 chain with A1L
Take B2: in experiment [2], the dissociation constant (Kd) stood at 2.27 pM, the koff stood at 7.99e-05 s⁻¹ and the kon was 3.52e+07 M⁻¹ s⁻¹.

B3: Hu-vWF[764-1270]-8His S764I/S766Y (other)
chain: B1 chain with A1I
On to B3, for which, in experiment [2], the equilibrium dissociation constant (Kd) was 9.23 pM, the koff was determined as 9.52e-05 s⁻¹ and the on-rate (kon) was 1.03e+07 M⁻¹ s⁻¹.

B4: Hu-vWF[764-1270]-8His S764T/S766Y (other)
chain: B1 chain with A1T
As to B4, in experiment [2], the dissociation constant Kd stood at 5.27 pM, the koff was 0.000136 s⁻¹ and the association rate constant (kon) was determined as 2.58e+07 M⁻¹ s⁻¹.

B5: Hu-vWF[764-1270]-8His S766Y-K773Y (other)
chain: B1 chain with A1S, K10Y
Turning to B5, in experiment [3], the Kd is 180 pM, the off-rate (koff) is 0.00404 s⁻¹ and the kon amounted to 2.24e+07 M⁻¹ s⁻¹.

B6: Hu-vWF[764-1270]-8His S766Y-K773W (other)
chain: B1 chain with A1S, K10W
For B6, in experiment [3], the equilibrium dissociation constant (Kd) came out at 134 pM, the koff worked out at 0.00393 s⁻¹ and the kon is 2.93e+07 M⁻¹ s⁻¹.

B7: Hu-vWF[764-1270]-8His S764K/S766Y (other)
chain: B1 chain with A1K
B7: in experiment [2], the equilibrium dissociation constant (Kd) was determined as 43.5 pM, the off-rate constant (koff) came to 0.000822 s⁻¹ and the kon was found to be 1.89e+07 M⁻¹ s⁻¹.

B8: Hu-vWF[764-1270]-8His S764V/S766Y (other)
chain: B1 chain with A1V
On to B8, for which, in experiment [2], the Kd was 2.15 pM, the koff is 6.41e-05 s⁻¹ and the kon amounted to 2.99e+07 M⁻¹ s⁻¹.

B9: Hu-vWF[764-1270]-8His S764P-S766M (other)
chain: B1 chain with A1P, Y3M
Regarding B9, in experiment [4], the dissociation constant (Kd) came to 292 pM, the koff is 9.16e-05 s⁻¹ and the kon was found to be 314000 M⁻¹ s⁻¹.

B10: Hu-vWF[764-1270]-8His S764P-S766Y (other)
chain: B1 chain with A1P
As to B10, in experiment [3], the Kd stood at 7.16 pM, the koff came to 7.71e-05 s⁻¹ and the on-rate (kon) amounted to 1.08e+07 M⁻¹ s⁻¹. Further, in experiment [2], the Kd was 7.16 pM, the koff was determined as 7.71e-05 s⁻¹ and the on-rate (kon) was 1.08e+07 M⁻¹ s⁻¹.

B11: Hu-vWF[764-1270]-8His S764Y/S766Y (other)
chain: B1 chain with A1Y
For the molecule B11, in experiment [2], the equilibrium dissociation constant (Kd) was 2.47 pM, the koff stood at 7.88e-05 s⁻¹ and the association rate constant (kon) was found to be 3.19e+07 M⁻¹ s⁻¹.

B12: Hu-vWF[764-1270]-8His S764R/S766Y (other)
chain: B1 chain with A1R
On to B12, for which, in experiment [2], the dissociation constant (Kd) came to 2.85 pM, the koff is 9.2e-05 s⁻¹ and the kon was determined as 3.23e+07 M⁻¹ s⁻¹.

B13: Hu-vWF[764-1270]-8His S764W/S766Y (other)
chain: B1 chain with A1W
Consider B13, for which, in experiment [2], the Kd is 10.9 pM, the koff worked out at 9.67e-05 s⁻¹ and the on-rate constant (kon) turned out to be 8.88e+06 M⁻¹ s⁻¹.

B14: Hu-vWF[764-1270]-8His S764H/S766Y (other)
chain: B1 chain with A1H
Consider B14, for which, in experiment [2], the Kd was 6.39 pM, the koff is 0.000292 s⁻¹ and the kon was 4.56e+07 M⁻¹ s⁻¹.

B15: Hu-vWF[764-1270]-8His S764N/S766Y (other)
chain: B1 chain with A1N
Regarding B15, in experiment [2], the equilibrium dissociation constant (Kd) was found to be 6.92 pM, the dissociation rate constant (koff) came out at 8.88e-05 s⁻¹ and the kon stood at 1.28e+07 M⁻¹ s⁻¹.

B16: Hu-vWF[764-1270]-8His S764E/S766Y (other)
chain: B1 chain with A1E
On to B16, for which, in experiment [2], the Kd worked out at 3.87 pM, the koff amounted to 7.64e-05 s⁻¹ and the kon was found to be 1.97e+07 M⁻¹ s⁻¹.

B17: Hu-vWF[764-1270]-8His S764P-S766L (other)
chain: B1 chain with A1P, Y3L
As to B17, in experiment [4], the dissociation constant (Kd) came out at 234 pM, the off-rate (koff) came to 0.000104 s⁻¹ and the kon was determined as 445000 M⁻¹ s⁻¹.

B18: Hu-vWF[764-1270]-8His S764F/S766Y (other)
chain: B1 chain with A1F
Consider B18, for which, in experiment [2], the dissociation constant Kd is 12.2 pM, the koff was found to be 9.36e-05 s⁻¹ and the kon was found to be 7.68e+06 M⁻¹ s⁻¹.

B19: Hu-vWF[764-1270]-8His S764G/S766Y (other)
chain: B1 chain with A1G
Consider B19, for which, in experiment [2], the Kd turned out to be 1.96 pM, the off-rate constant (koff) stood at 2.69e-05 s⁻¹ and the association rate constant (kon) turned out to be 1.37e+07 M⁻¹ s⁻¹.

B20: Hu-vWF[764-1270]-8His S764M/S766Y (other)
chain: B1 chain with A1M
B20: in experiment [2], the Kd came to 14.4 pM, the koff was determined as 0.000103 s⁻¹ and the on-rate constant (kon) worked out at 7.15e+06 M⁻¹ s⁻¹.

B21: Hu-vWF[764-1270]-8His S766Y-K773V (other)
chain: B1 chain with A1S, K10V
With B21, in experiment [3], the dissociation constant Kd was 49.4 pM, the koff is 0.000861 s⁻¹ and the association rate constant (kon) amounted to 1.74e+07 M⁻¹ s⁻¹.

B22: Hu-vWF[764-1270]-8His S764D/S766Y (other)
chain: B1 chain with A1D
Consider B22, for which, in experiment [2], the dissociation constant (Kd) came out at 3.12 pM, the off-rate constant (koff) was 0.000118 s⁻¹ and the on-rate constant (kon) worked out at 3.78e+07 M⁻¹ s⁻¹.

B23: Hu-vWF[764-1270]-8His S764Q/S766Y (other)
chain: B1 chain with A1Q
For B23, in experiment [2], the equilibrium dissociation constant (Kd) worked out at 9.18 pM, the off-rate constant (koff) is 0.000109 s⁻¹ and the kon was 1.19e+07 M⁻¹ s⁻¹.

B24: Hu-vWF[764-1270]-8His S764P-S766W (other)
chain: B1 chain with A1P, Y3W
Turning to B24, in experiment [4], the Kd stood at 172 pM, the koff is 4.75e-05 s⁻¹ and the on-rate constant (kon) was determined as 277000 M⁻¹ s⁻¹.
